Laboratory results reported in patent US20170253656A1 (SUTRO BIOPHARMA, published 2017).
Changes are numbered by the printed parent chain.

T1: hu-CD74 antigen (R&D SYSTEMS catalog #3590-CD-050) (human, UniProt P04233-2 73-232, limits assumed)
T1 construct: Bought antigen; also called rhCD74; human CD74
T1 sequence (looked up): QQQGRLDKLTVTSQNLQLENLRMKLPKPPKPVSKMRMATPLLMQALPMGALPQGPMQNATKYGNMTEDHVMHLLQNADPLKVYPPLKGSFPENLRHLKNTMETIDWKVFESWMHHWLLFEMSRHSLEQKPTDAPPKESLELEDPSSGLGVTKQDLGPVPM

B1: 1193-H04b (scFv)
scFv: EVQLLESGGGLVQPGGSLRLSCAASGFTFTSSWMSWVRQAPGKGLEWVGIINGYNGITYYADSVKGRFTISRDNSKNTLYLQMNSLRAEDTAVYYCAKPSAPGARRFDYWGQGTLVTVSSGGGGSGGGGSGGGGSEIVLTQSPGTLSLSPGEATLSCRASQSVSSSYLAWYQQRPGQAPRLLIYGASSRATGIPDRFSGSGSGTDFTLTISRLEPEDFAVYYCQQHYTTPPTFGQGTKVEIK
notes: Called scFv clone
B2: 1193-B06 (scFv)
scFv: EVQLLESGGGLVQPGGSLRLSCAASGFTFTGNWMSWVRQAPGKGLEWVGIIYGTSGATYYADSVKGRFTISRDNSKNTLYLQMNSLRAEDTAVYYCAKPSMSGSRGFDYWGQGTLVTVSSGGGGSGGGGSGGGGSEIVLTQSPGTLSLSPGERATLSCRAGQSVSSSYLAWYQQKPGQAPRLLIYGASSRATGIPDRFSGSGSGTDFTLTISRLEPEDFAVYYCQQHYTTPPTFGQGTKVEIK
notes: Called scFv clone; VH3-23 / Vk3-A27; Biacore capture was on anti-human Fc, so an Fc may have been attached
B3: 1198-A01 paired with trastuzumab LC (Fab, V domains shown)
VH: EVQLVESGGGLVQPGGSLRLSCAASGFTFSDYDMSWVRQAPGKGLEWVGFIAQDGSYKYYVDSVKGRFTISRDNAKNSLYLQMNSLRAEDTAVYYCARSKLFRAGQFDYWGQGTLVTVSS
VL: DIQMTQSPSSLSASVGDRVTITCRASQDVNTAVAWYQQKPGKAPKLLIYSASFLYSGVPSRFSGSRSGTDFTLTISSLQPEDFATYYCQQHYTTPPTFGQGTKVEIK
notes: Called Fab clone
B4: 1198-B10 paired with trastuzumab LC (Fab, V domains shown)
VH: EVQLVESGGGLVQPGGSLRLSCAASGFNISGSWIHWVRQAPGKGLEWVGYIYPDDGDTYYADSVKGRFTISADTSKNTAYLQMNSLRAEDTAVYYCAREGSHNLDKMDYWGQGTLVTVSS
VL: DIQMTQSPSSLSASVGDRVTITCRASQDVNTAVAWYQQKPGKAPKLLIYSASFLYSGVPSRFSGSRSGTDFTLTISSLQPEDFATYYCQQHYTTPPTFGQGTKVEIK
notes: Called Fab clone
B5: 1198-D03 paired with trastuzumab LC (Fab, V domains shown)
VH: EVQLVESGGGLVQPGGSLRLSCAASGFNINNYDIHWVRQAPGKGLEWVANIDPYNGATYYADSVKGRFTISADTSKNTAYLQMNSLRAEDTAVYYCARVLWGFWAPFDYWGQGTLVTVSS
VL: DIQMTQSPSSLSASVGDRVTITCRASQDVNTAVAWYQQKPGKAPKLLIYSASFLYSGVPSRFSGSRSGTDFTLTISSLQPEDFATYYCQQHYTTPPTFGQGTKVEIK
notes: Called Fab clone
B6: 1198-D04 paired with trastuzumab LC (Fab, V domains shown)
VH: B5 VH with A57T, L100P
VL: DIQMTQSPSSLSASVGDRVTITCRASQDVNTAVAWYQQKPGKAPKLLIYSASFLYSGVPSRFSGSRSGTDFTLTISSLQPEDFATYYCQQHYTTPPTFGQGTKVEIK
notes: Called Fab clone

Target: T1, hu-CD74 antigen (R&D SYSTEMS catalog …)
Assay: SPR (Biacore T200), captured on anti-human Fc, rhCD74 analyte

Kd [nM] | koff [s⁻¹] | kon [M⁻¹ s⁻¹] | Binder
63.8 | 0.00824 | 129000 | B1
29 | 0.0274 | 946000 | B2

Target: T1, hu-CD74 antigen (R&D SYSTEMS catalog …)
Assay: as above
Remark: another data set of the same source

Kd [nM] | koff [s⁻¹] | kon [M⁻¹ s⁻¹] | Binder
6.6 | 0.00119 | 179000 | B3
11.9 | 0.00286 | 241000 | B4
3.25 | 0.00636 | 1.95e+06 | B5
6.58 | 0.00177 | 268000 | B6
